This note sets out measurements from publication PMC12824264 (2025).

B1: BMP10 growth factor domain (GFD) dimer (ligand)
chain: NAKGNYCKRTPLYIDFKEIGWDSWIIAPPGYEAYECRGVCNYPLAEHLTPTKHAIIQALVHLKNSQKASKACCVPTKLEPISILYLDKGVVTYKFKYEGMAVSECGCR
B2: sENG(D):BMP9 complex (complex)
chain 1: ETVHCDLQPVGPERGEVTYTTSQVSKGCVAQAPNAILEVHVLFLEFPTGPSQLELTLQASKQNGTWPREVLLVLSVNSSVFLHLQALGIPLHLAYNSSLVTFQEPPGVNTTELPSFPKTQILEWAAERGPITSAAELNDPQSILLRLGQAQGSLSFCMLEASQDMGRTLEWRPRTPALVRGCHLEGVAGHKEAHILRVLPGHSAGPRTVTVKVELSCAPGDLDAVLILQGPPYVSWLIDANHNMQIWTTGEYSFKIFPEKNIRGFKLPDTPQGLLGEARMLNASIVASFVELPLASIVSLHASSCGGRLQTSPAPIQTTPPKDTCSPELLMSLIQTKCADDAMTLVLKKELVAHLKCTITGLTFWDPSCEAEDRGDKFVLRSAYSSCGMQVSASMISNEAVVNILSSSSPQRKKVHCLNMDSLSFQLGLYLSPHFLQASNTIEPGQQSFVQVRVSPSVSEFLLQLDSCHLDLGPEGGTVELIQGRAAKGNCVSLLSPSPEGDPRFSFLLHFYTVPIPKTGTLSCTVALRPKTGSQDQEVHRTVFMRLNIISPDLSGCTSKG
chain 2: SAGAGSHCQKTSLRVNFEDIGWDSWIIAPKEYEAYECKGGCFFPLADDVTPTKHAIVQTLVHLKFPTKVGKACCVPTKLSPISVLYKDDMGVPTLKYHYEGMSVAECGCR
B3: sENG(M):BMP10 complex (complex)
chain 1: B2 chain 1
chain 2: B1 chain
B4: sENG(M):BMP9 complex (complex)
chain 1: B2 chain 1
chain 2: B2 chain 2
B5: sENG(D):BMP10 complex (complex)
chain 1: B2 chain 1
chain 2: B1 chain
B6: BMP9 growth factor domain (GFD) dimer (ligand)
chain: B2 chain 2

The first assay addresses T1, ALK1-Fc (UniProt P37023 22-118). Nature of the assay: SPR. (SPR reads the build-up and loss of mass on a sensor chip optically.)
The term koff denotes a measure of how fast the partners let go of each other. For B1, the koff came out at 0.000169 s⁻¹.
Take B2: the koff amounted to 0.000236 s⁻¹.
The molecule B3 registered a koff of 0.00017 s⁻¹.
For B4, the koff was 0.000124 s⁻¹.
The same measure, in the same setting: next, B5: 0.000329 s⁻¹.
As to B6, the koff worked out at 0.000162 s⁻¹. This koff is about 2-fold lower than that of the molecule before.

In a further assay the target is T1, ALK1-Fc. Nature of the assay: SPR. This is another data set of the same source.
For orientation: Kd means a measure of binding affinity in units of concentration. A higher Kd goes with lower affinity. B2 displayed a Kd of 0.422 nM.
Turning to B3, binding was put at a Kd of 1.68 nM.
Still for that read-out and setting: next, B4: 0.179 nM; B5: 2.97 nM.
